Experimental data from the supplement of paper PMC12764529.
± gives the half width of the 95% confidence interval.

Legend:
[1] = folding stability dG unfold from chymotrypsin proteolysis; higher = more stable
Method: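 Folding stability of de novo designed mini-proteins (<80 aa, no Cys; designed by TrROS, TrMRF, ProteinMPNN and the joint model) was measured by cDNA display proteolysis with trypsin and chymotrypsin. Each protease was used at 11 concentrations in a threefold dilution series plus a no-protease condition. K50 was inferred by Bayesian fitting of sequencing counts, and dG unfold was derived against a sequence-predicted unfolded-state K50 (Tsuboyama et al. method). Sequences shown include variable-length N-terminal GS-type padding (SAGGSAGG...) inside a display construct carrying a PA tag. Rows were kept only if the AF2 dimer inter-PAE was >15, to exclude likely homo-oligomers.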

[2] = folding stability dG unfold (combined trypsin and chymotrypsin); higher = more stable
Method in brief: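 Designed mini-proteins with no cysteine and under 80 residues were kept only if AlphaFold2 dimer inter-PAE was above 15. In a PA-tagged cDNA display construct, they were digested with trypsin and chymotrypsin and then sequenced. K50 was inferred by Bayesian fitting of counts, and unfolding free energy was derived per protease or combined against a sequence-predicted unfolded-state K50 and a shared folded-state K50.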

Sequence | folding stability dG unfold [1] | folding stability dG unfold [2]
SAGGSAGGSAGGPDVTTSDSVSLERLPDDTIVLRRTTTVTPPTGPPVVTSTTTVLPPSTLSAGGSAGGSAGG [r17_312_JUSTAS] | -0.319 ± 0.41 kcal/mol | < -1 kcal/mol
SAGGSAGGKTKVKGTLIGPNGPPVEVEGEALLPDGREYDVHIDAVLLPDPEGEPTVVVKVEVKPSAGGSAGG [r6_334_TrMRF] | 0.168 ± 0.051 kcal/mol | -0.127 ± 0.23 kcal/mol
SGMVTLEDIAAAPPGTPVVVTTKKQGSKNLTFIDAVVDGARSSASYPSIEEARKELEAVGYPVEFVDPAESA [r9_1021_JUSTAS] | 0.143 ± 0.066 kcal/mol | -0.429 ± 0.19 kcal/mol
SAGGSAGGMTIKELLKEGVPFKIEMYGPNNGEPREFKIPPGESIDDILENMPFPPGMQIRIEPKSAGGSAGG [r6_232_TrROS] | 0.121 ± 0.31 kcal/mol | -0.142 ± 0.42 kcal/mol
SAGGSAGGSAGGSKVNDVTAEKNFLVFTEDGRVLGKGEVERAFAAGAGPIGAVPLPPGASAGGSAGGSAGGS [r4_47_TrMRF] | -0.54 ± 0.23 kcal/mol | < -1 kcal/mol
SAGMKVTVSPASLVFDPATGRLLRPVLVTVEDTGGGGKTPAEEQAAAAEATRRALAAELAPRTGSALDLSAG [r5_333_JUSTAS] | 0.912 ± 0.069 kcal/mol | 0.37 ± 0.091 kcal/mol
SKTVVIAADPNNPEAIKKAIEEAPPDTTIVIVVPLENGEYPKVTITRKPPEVPPIPPELLSEEEIKELLPSA [r9_1103_TrMRF] | 0.836 ± 0.053 kcal/mol | 0.42 ± 0.14 kcal/mol
SAGGPNFMFRVKMPHPRPKKDPEDGKEKWRPQRHEHTVPFPADDPEQALDELADNMPPNNFKITDITSAGGS [r16_459_TrROS] | 0.45 ± 0.22 kcal/mol | -0.0582 ± 0.18 kcal/mol
SGMTTPVAEIDNTDGKPEKVKEWIKKTIPKTPPVTVTRTLASGAPSTWTIDPNTGKVTESVPGGHVTVAASA [r9_853_JUSTAS] | -1.07 ± 0.7 kcal/mol | < -1 kcal/mol
SAGGMLITEEDLAALLAAVPPERPDAVVTLTVGRLQRILPGSTGENEPIPSSVEPSVVTLPVTVPPASAGGS [r16_708_JUSTAS] | -0.833 ± 0.24 kcal/mol | < -1 kcal/mol
SAGGSAGGSAGGDVNSPNIPPVLTVEPVEVLDPGGGGLRRRVVYVAPGGIVLETEERPESAGGSAGGSAGGS [r10_261_JUSTAS] | 0.702 ± 0.12 kcal/mol | 0.156 ± 0.16 kcal/mol
SAGGSAGGMPVVVETRPDPETGNEIVRITVPKPNYTLVLRRDSQGKETLLAEIGPYTPDDPGLLSAGGSAGG [r6_149_JUSTAS] | 0.474 ± 0.18 kcal/mol | -0.00962 ± 0.23 kcal/mol
SAGGSAIKIDPDYGTIEIYNPDNGKEIEIPIDGLPPGRKMDIEINNDKIEIKMPGGTRELPIDDIKSAGGSA [r15_864_TrROS] | 0.655 ± 0.068 kcal/mol | 0.194 ± 0.26 kcal/mol
SAGGSAGGSAGGKPTIKLKVTITNENGEKIEIEVEAESEEEALEALKALLPPGWKVEIESAGGSAGGSAGGS [r10_145_TrROS_Hall] | 2.82 ± 0.2 kcal/mol | 4.21 ± 0.67 kcal/mol
SAGGSAGGSAGGMTLTITDDDPSVGPRTFTLTEPGSSKTTTLTSAEMEALKAAGPVTVAGSAGGSAGGSAGG [r7_452_JUSTAS] | 0.122 ± 0.22 kcal/mol | -0.209 ± 0.23 kcal/mol
SAGGSAGGSAGMKDNLVVTRTYTLPDDTVLVTRATFDSNPELVTVDVTEVPLSDVAPDAVSAGGSAGGSAGG [r11_493_TrMRF] | 0.514 ± 0.11 kcal/mol | -0.0312 ± 0.14 kcal/mol
SAGGSAGGSAGAYSATPVEERRLPDGSTLVRERVTDPATGTPALREVLVTDEGVEERLLPSAGGSAGGSAGG [r11_991_JUSTAS] | 0.415 ± 0.098 kcal/mol | -0.458 ± 0.1 kcal/mol
SAGGMTVVSTETDTATGRPVRTVRLPPEASLRELAALDGWVRLVDPAPDREVELPAEDPEAVVEALLASAGG [r13_604_JUSTAS] | 0.0196 ± 0.13 kcal/mol | -0.504 ± 0.22 kcal/mol
RTISIDEIREKLGMDPDDLKNMPMEEIADEIRDELPPGRAKGVKISPNEDDGMWTITVKYKNGRPVEITIDS [r1_340_TrROS] | 0.671 ± 0.16 kcal/mol | 0.156 ± 0.37 kcal/mol
SAGGSAGGSAMLTLRFELPDGSERELRLPGVTPEEAAALAAELARREGVARVEVYPPGVERSAGGSAGGSAG [r3_160_JUSTAS] | 0.532 ± 0.26 kcal/mol | -0.823 ± 0.44 kcal/mol
SAGGSAGGSAGGSSVYTSPSKPIAITSRTLVPESNLVRVEAVDPSGAPIEGIIPPSATLGSAGGSAGGSAGG [r7_427_JUSTAS] | -0.114 ± 0.27 kcal/mol | < -1 kcal/mol
SAGGSAGGSMSTVSTSTTYFPDKKVTTTTTVTPTPDGTTATTPSVTVTPLPPPNPPPAPFNRLSAGGSAGGS [r20_30_JUSTAS] | -0.125 ± 0.28 kcal/mol | -0.351 ± 0.36 kcal/mol
SAGGSAGGSAGGSMTVTETRYVGTDPATGVATTLSTYRDASGTPGLVTTYPGGAVTVALSAGGSAGGSAGGS [r4_35_JUSTAS] | 0.0995 ± 0.26 kcal/mol | -0.312 ± 0.28 kcal/mol
